Numbered stars: 1 amine (or outer) side, 2 acyl side, 3 side chain; on linkers, the order of the positions; unused ones are H or OH. Bridge positions count the residues as written; N and C are the ends. Square brackets hold non-standard residues; d marks the D form. Ends that are not written are not given here. X10 = (2R)‑2‑amino‑3‑(trifluoromethylsulfanyl)propanoic acid, O=C([C@H](CSC(F)(F)F)N[*:1])[*:2]; (R)‑Pyrrolidine‑3‑acetic acid = O=C(C[C@H]1CCN([*:1])C1)[*:2]; Oic = O=C(O)[C@@H]1C[C@@H]2CCCC[C@@H]2N1; βPro(3R) = O=C([C@@H]1CCN([*:1])C1)[*:2]; tBuAla = CC(C)(C)C[C@H](N)C(=O)O; Pen = CC(C)(S)[C@H](N)C(=O)O; NPhGly = O=C(O)CNc1ccccc1; Orn = NCCC[C@H](N)C(=O)O; Abu = CC[C@H](N)C(=O)O; Sar = CNCC(=O)O
T1: recombinant human MASP1 active protease (amino acids 297-699, C-terminal His Tag) (human, UniProt P48740 297-699)
T1 sequence: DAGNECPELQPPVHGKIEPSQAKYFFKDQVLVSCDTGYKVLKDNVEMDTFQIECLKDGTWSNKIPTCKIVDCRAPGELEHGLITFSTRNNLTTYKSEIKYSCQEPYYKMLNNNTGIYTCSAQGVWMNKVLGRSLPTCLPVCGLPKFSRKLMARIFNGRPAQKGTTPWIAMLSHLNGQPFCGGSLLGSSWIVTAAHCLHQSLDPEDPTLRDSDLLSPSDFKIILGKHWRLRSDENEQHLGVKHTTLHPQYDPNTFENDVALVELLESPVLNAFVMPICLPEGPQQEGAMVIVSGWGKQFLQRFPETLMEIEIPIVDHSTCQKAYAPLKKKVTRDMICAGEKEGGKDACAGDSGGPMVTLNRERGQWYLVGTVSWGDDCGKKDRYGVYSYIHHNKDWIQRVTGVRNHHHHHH

T2: recombinant rat MASP1 active protease (amino acids 302-704, C-terminal His Tag) (rat, UniProt Q8CHN8 302-704)
T2 sequence: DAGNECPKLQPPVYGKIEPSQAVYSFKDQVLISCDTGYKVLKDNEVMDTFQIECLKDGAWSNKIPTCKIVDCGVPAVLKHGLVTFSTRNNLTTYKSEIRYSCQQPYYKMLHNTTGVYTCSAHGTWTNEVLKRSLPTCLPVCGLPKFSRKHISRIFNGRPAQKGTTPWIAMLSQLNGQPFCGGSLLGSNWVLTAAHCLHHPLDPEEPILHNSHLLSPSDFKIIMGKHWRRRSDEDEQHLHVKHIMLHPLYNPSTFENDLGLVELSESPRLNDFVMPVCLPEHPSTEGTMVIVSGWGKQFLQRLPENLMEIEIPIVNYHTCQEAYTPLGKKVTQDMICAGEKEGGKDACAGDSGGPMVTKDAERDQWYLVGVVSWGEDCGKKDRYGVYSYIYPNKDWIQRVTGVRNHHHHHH

B1: Example 310: ((N-Me)G)-I-(Pen)+SRS-((tBu)A)-PPI-C+IP-NH2 (peptide)
peptide: [Sar]I[Pen]SRS[tBuAla]PPICIP-NH2
modifications: disulfide 3-11; N-terminus assumed
SMILES: CC[C@H](C)[C@H](NC(=O)CNC)C(=O)N[C@@H]1C(=O)N[C@@H](CO)C(=O)N[C@@H](CCCNC(=N)N)C(=O)N[C@@H](CO)C(=O)N[C@@H](CC(C)(C)C)C(=O)N2CCC[C@H]2C(=O)N2CCC[C@H]2C(=O)N[C@@H]([C@@H](C)CC)C(=O)N[C@H](C(=O)N[C@H](C(=O)N2CCC[C@H]2C(N)=O)[C@@H](C)CC)CSSC1(C)C
B2: Example 312: ((N-Me)G)-IC+SRSLPPIC+IPd-OH (peptide)
peptide: [Sar]ICSRSLPPICIP[dD]-OH
modifications: disulfide 3-11; N-terminus assumed
SMILES: CC[C@H](C)[C@H](NC(=O)CNC)C(=O)N[C@H]1CSSC[C@@H](C(=O)N[C@H](C(=O)N2CCC[C@H]2C(=O)N[C@H](CC(=O)O)C(=O)O)[C@@H](C)CC)NC(=O)[C@H]([C@@H](C)CC)NC(=O)[C@@H]2CCCN2C(=O)[C@@H]2CCCN2C(=O)[C@H](CC(C)C)NC(=O)[C@H](CO)NC(=O)[C@H](CCCNC(=N)N)NC(=O)[C@H](CO)NC1=O
B3: Example 532: ((N-Me)G)-IC+SRSLP-(Oic)-I-(Pen)+IP-((R)-Pyrrolidine-3-carboxylic acid)-OH (peptide)
peptide: [Sar]ICSRSLP[Oic]I[Pen]IP[βPro(3R)]-OH
modifications: disulfide 3-11; N-terminus assumed
SMILES: CC[C@H](C)[C@H](NC(=O)CNC)C(=O)N[C@H]1CSSC(C)(C)[C@@H](C(=O)N[C@H](C(=O)N2CCC[C@H]2C(=O)N2CC[C@@H](C(=O)O)C2)[C@@H](C)CC)NC(=O)[C@H]([C@@H](C)CC)NC(=O)[C@@H]2C[C@@H]3CCCC[C@@H]3N2C(=O)[C@@H]2CCCN2C(=O)[C@H](CC(C)C)NC(=O)[C@H](CO)NC(=O)[C@H](CCCNC(=N)N)NC(=O)[C@H](CO)NC1=O
B4: Example 529: (Orn)-IC+SRS-((2R)-2-amino-3-(trifluoromethylsulfanyl)propanoic acid)-PPI-(Pen)+IPD-OH (peptide)
peptide: [Orn]ICSRS[X10]PPI[Pen]IPD-OH
modifications: disulfide 3-11; N-terminus assumed
SMILES: CC[C@H](C)[C@H](NC(=O)[C@@H](N)CCCN)C(=O)N[C@H]1CSSC(C)(C)[C@@H](C(=O)N[C@H](C(=O)N2CCC[C@H]2C(=O)N[C@@H](CC(=O)O)C(=O)O)[C@@H](C)CC)NC(=O)[C@H]([C@@H](C)CC)NC(=O)[C@@H]2CCCN2C(=O)[C@@H]2CCCN2C(=O)[C@H](CSC(F)(F)F)NC(=O)[C@H](CO)NC(=O)[C@H](CCCNC(=N)N)NC(=O)[C@H](CO)NC1=O
B5: Example 530: ((N-Me)G)-IC+SRSLP-(Oic)-I-(Pen)+IP-((R)-Pyrrolidine-3-acetic acid)-OH (peptide)
peptide: [Sar]ICSRSLP[Oic]I[Pen]IP[(R)‑Pyrrolidine‑3‑acetic acid]-OH
modifications: disulfide 3-11; N-terminus assumed
SMILES: CC[C@H](C)[C@H](NC(=O)CNC)C(=O)N[C@H]1CSSC(C)(C)[C@@H](C(=O)N[C@H](C(=O)N2CCC[C@H]2C(=O)N2CC[C@H](CC(=O)O)C2)[C@@H](C)CC)NC(=O)[C@H]([C@@H](C)CC)NC(=O)[C@@H]2C[C@@H]3CCCC[C@@H]3N2C(=O)[C@@H]2CCCN2C(=O)[C@H](CC(C)C)NC(=O)[C@H](CO)NC(=O)[C@H](CCCNC(=N)N)NC(=O)[C@H](CO)NC1=O
B6: Example 313: ((N-Me)G)-IC+SRSLPPIC+I-(Abu)-D-OH (peptide)
peptide: [Sar]ICSRSLPPICI[Abu]D-OH
modifications: disulfide 3-11; N-terminus assumed
SMILES: CC[C@H](NC(=O)[C@@H](NC(=O)[C@@H]1CSSC[C@H](NC(=O)[C@@H](NC(=O)CNC)[C@@H](C)CC)C(=O)N[C@@H](CO)C(=O)N[C@@H](CCCNC(=N)N)C(=O)N[C@@H](CO)C(=O)N[C@@H](CC(C)C)C(=O)N2CCC[C@H]2C(=O)N2CCC[C@H]2C(=O)N[C@@H]([C@@H](C)CC)C(=O)N1)[C@@H](C)CC)C(=O)N[C@@H](CC(=O)O)C(=O)O
B7: Example 311: ((N-Ph)G)-IC+SRS-((tBu)A)-PPI-(Pen)+IP-NH2 (peptide)
peptide: [NPhGly]ICSRS[tBuAla]PPI[Pen]IP-NH2
modifications: disulfide 3-11; N-terminus assumed
SMILES: CC[C@H](C)[C@H](NC(=O)CNc1ccccc1)C(=O)N[C@H]1CSSC(C)(C)[C@@H](C(=O)N[C@H](C(=O)N2CCC[C@H]2C(N)=O)[C@@H](C)CC)NC(=O)[C@H]([C@@H](C)CC)NC(=O)[C@@H]2CCCN2C(=O)[C@@H]2CCCN2C(=O)[C@H](CC(C)(C)C)NC(=O)[C@H](CO)NC(=O)[C@H](CCCNC(=N)N)NC(=O)[C@H](CO)NC1=O

Legend:
Experiment in all cases: cell-based or functional assay
[1] = molecular target: T1, recombinant human MASP1 active protease …
[2] = molecular target: recombinant human MASP2 active protease (amino acids 297-686, C-terminal His Tag) (human, UniProt O00187 297-686)
[3] = molecular target: T2, recombinant rat MASP1 active protease …
[4] = molecular target: recombinant rat MASP2 active protease (amino acids 296-685, C-terminal His Tag) (rat, UniProt Q9JJS8 296-685)
Sequence of recombinant rat MASP2 active protease (amino acids 296-685, C-terminal His Tag) (Q9JJS8 other isoform, or with tags, fused parts or gaps limits assumed): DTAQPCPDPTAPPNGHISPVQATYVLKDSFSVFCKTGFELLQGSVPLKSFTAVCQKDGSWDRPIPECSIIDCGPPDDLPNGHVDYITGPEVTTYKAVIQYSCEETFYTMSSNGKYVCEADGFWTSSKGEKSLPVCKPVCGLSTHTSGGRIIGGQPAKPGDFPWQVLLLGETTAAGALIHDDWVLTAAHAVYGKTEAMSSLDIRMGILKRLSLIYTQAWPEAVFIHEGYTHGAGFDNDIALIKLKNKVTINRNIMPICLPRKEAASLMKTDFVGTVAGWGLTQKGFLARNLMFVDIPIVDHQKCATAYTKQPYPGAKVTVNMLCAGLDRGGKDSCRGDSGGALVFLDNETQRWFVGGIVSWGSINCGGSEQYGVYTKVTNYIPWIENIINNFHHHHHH

Sequence of recombinant human MASP2 active protease (amino acids 297-686, C-terminal His Tag) (O00187 other isoform, or with tags, fused parts or gaps limits assumed): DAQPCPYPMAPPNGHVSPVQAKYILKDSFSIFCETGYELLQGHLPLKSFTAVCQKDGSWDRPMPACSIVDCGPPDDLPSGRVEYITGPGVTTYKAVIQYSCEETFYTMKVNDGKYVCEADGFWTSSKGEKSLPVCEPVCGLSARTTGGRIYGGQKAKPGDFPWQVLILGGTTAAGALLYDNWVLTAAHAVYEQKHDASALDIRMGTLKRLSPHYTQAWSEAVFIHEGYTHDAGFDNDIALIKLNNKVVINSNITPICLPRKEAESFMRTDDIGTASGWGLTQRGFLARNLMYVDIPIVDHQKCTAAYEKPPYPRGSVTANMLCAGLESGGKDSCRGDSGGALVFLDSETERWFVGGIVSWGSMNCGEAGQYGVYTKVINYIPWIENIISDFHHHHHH

| Binder | human MASP1 IC50 [1] [nM] | human MASP2 IC50 [2] [nM] | rat MASP1 IC50 [3] [nM] | rat MASP2 IC50 [4] [nM] |
| --- | --- | --- | --- | --- |
| B1 | 20 | 3000 |  |  |
| B2 | 21 | 530 |  |  |
| B3 |  |  | 24.2 | 17.6 |
| B4 |  |  | 730 | 100 |
| B5 |  |  | 23.3 | 18.4 |
| B6 | 21 | 250 |  |  |
| B7 | 20 | 49 |  |  |

From patent publication US20210246166A1 (Bayer, published 2021)
